Source: FireProtDB (doi:10.1093/protein/7.6.777)

B1: Subtilisin-chymotrypsin inhibitor-2A, P01053 (parent)
chain: MSSVEKKPEGVNTGAGDRHNLKTEWPELVGKSVEEAKKVILQDKPEAQIIVLPVGTIVTMEYRIDRVRLFVDKLDNIAQVPRVG

Variants of: B1
Conditions: Hordeum vulgare, structure 2CI2, whole UniProt chain shown; for Tm / unfolding enthalpy (calorimetric): Thermal, DSC; for denaturant m value / denaturant midpoint (higher = more stable) / unfolding free energy: pH 6.25, 25 °C, GdnHCl, Fluorescence, MES 50 mM

Variant	Tm (pH 3, glycine-HCl 10 mM)	unfolding enthalpy (calorimetric) (pH 3, glycine-HCl 10 mM)	denaturant m value	denaturant midpoint (higher = more stable)	unfolding free energy	Tm (pH 3.5, formate 10 mM)	unfolding enthalpy (calorimetric) (pH 3.5, formate 10 mM)
S32A	58 °C	53 kcal/mol	1.86 kcal/mol/M	3.54 M	6.58 kcal/mol	–	–
S32G	–	–	2.1 kcal/mol/M	3.59 M	7.52 kcal/mol	69 °C	64 kcal/mol
S32G E34A E35A	56.5 °C	55 kcal/mol	2.15 kcal/mol/M	3.16 M	6.79 kcal/mol	–	–
E34A E35A	60.1 °C	58 kcal/mol	2.11 kcal/mol/M	3.61 M	7.61 kcal/mol	–	–
S32A E34A E35A	56.2 °C	54 kcal/mol	2.18 kcal/mol/M	3.14 M	6.86 kcal/mol	–	–
E34N	–	–	2.01 kcal/mol/M	3.64 M	7.29 kcal/mol	–	–
E34Q	–	–	1.87 kcal/mol/M	3.85 M	7.03 kcal/mol	–	–
E34D	–	–	1.83 kcal/mol/M	3.73 M	6.84 kcal/mol	–	–
E35D	–	–	2.2 kcal/mol/M	3.62 M	7.98 kcal/mol	–	–
E35Q	–	–	1.84 kcal/mol/M	3.76 M	6.92 kcal/mol	–	–
E35N	–	–	2.18 kcal/mol/M	3.45 M	7.53 kcal/mol	–	–
